In a protein production outcome set (Wang et al. 2014) one finds protein production data, which are given here for 13 sequences.

The nature of the series: label from the status in PepcDB records.
For “MATAENTELIDRFEEFYRNYYRNEIGELAQKYPNDQKSLYIDWDDLYRFDPDLADDYRTKPEQIQEYAEEALRLYDLPVDVSLGQAHVRVRNLPESEDIRDLRHEHHGNLVAVRGIIRKATDVRPKVIEAAFECQRCGTLTRIPQTAGDFQEPHDCQGCERQGPFRLNTDQSQFIDAQKLRVQESPEGLRGGETPQSIDINIEDDITGHVTAGDHVRVTGILKLDQRGNDNEKSPMFDIYMEGVSVEIEDEQFEDMEITDADKTEIVELSSEPDIYDKMVGAIAPSIYGYEKEKLAMMLQLFSGVTKELPDGSRIRGDLHMLLIGDPGTGKCVHGDTRVTLADGHERPIREVVESNLDDPKPVDDGVWDTVDFDVPSLQSDGTVATQNATKVWKRKAPETLYRIRTATGRELDVTPSHPLFVQSDGRFQARKAEELESGTHVAVPRKVSTNACNELDVTFRQSQAHNRIDLDLPPQWTPELARLIGYIVAEGYVEQRPDNTGYVSITNNDREVLDDAKSVLETLNLNVTERSSHEGKTARELLCSAGEFVSFLASLDETLLQSSAERRVPQDIMRASDNVVTGFIRGYIEGEGHVSTSQREITVASMSKPLLEDVRTLLVTQGITAQLQPRNNGSYRLRISGQSFHDYAEQIGFITARKTEACRQFEGTHGNTNLDIVPNLGPELRRIREALGLTQSECGLPRSTYQHYERGRRNPSRDSLESVLDAFETRLAEMNNDTPISDTARSDGGGTGSLRQDLNGLAALVEGDIAWDRIESIEPIEHDEKWVYDLEIEGTHNYLTNGVVSHNSQMLSYIENIAPRSVYTSGKGSSSAGLTAAAVRDDFGDGQQWTLEAGALVLADQGIAAIDELDKMSPEDRSAMHEALEQQRISVSKAGINATLKSRCSLLGAANPKYGRFDQYEPIGEQIDLEPALISRFDLIFTVTDKPDEEKDRNLAEHIIQTNYAGELHTHRTENPTSNFSEEEVGTVTEEVAPTIEPDLLRKYVAYAKRNCFPTMTEEAKSRIEDFYVDLRLKGQDEDAPVPVTARKLEALVRLAEASARIRLSDTVDEADADRAVDIAHYCLKEIGVDPETGEFDADVVETGQSKTQRDRIQNIKGIISDIEDEYDEGAPADVVIERAEEVGIDESKAEHEIDKLKQKGEVYEPRTDHLRTT”, the protein production entry is reported as “failed”.

Turning to “MATEISTRGRQRAIGHEEYSLYSSLSEEELLQMAIEQSLADKTRGPTPAEASASSQTNHQPGHFHPWTRSPSSPENPPARAPLGLFQGVMQKYSSNLFKTSQMAAMDPVLKAIKEGDEEALKIMIQDGKNLAEPNKEGWLPLHEAAYYGQLGCLKVLQQAYPGTIDQRTLQEETALYLATCREHLDCLLSLLQAGAEPDISNKSRETPLYKACERKNAEAVRILVRYNADANHRCNRGWTALHESVSRNDLEVMEILVSGGAKVEAKNVYSITPLFVAAQSGQLEALRFLAKHGADINTQASDSASALYEASKNEHEDVVEFLLSQGADANKANKDGLLPLHVASKKGNYRIVQMLLPVTSRTRVRRSGISPLHLAAERNHDAVLEALLAARFDVNAPLAPERARLYEDRRSSALYFAVVNNNVYATELLLLAGADPNRDVISPLLVAIRHGCLRTMQLLLDHGANIDAYIATHPTAFPATIMFAMKCLSLLKFLMDLGCDGEPCFSCLYGNGPHPPAPRPGRFHDAPVDDKAPSVVQFCEFLSAPEVSRWAGPIIDVLLDYVGNVQLCSRLKEHIDSFEDWAVIKEKAEPPRPLAHLCRLRVRKAIGKYRIKLLDTLPLPGRLIRYLKYENTQ”, the protein production result is on record as “failed”.

On to “MATFFSLALYAGSFTFILREGGIPFYYLGVFFAIAVILYLIFNSLSREYVGRAGDAIIVPVSILMVAVAFVLVYISQSIPIISVSVALFTVSLIMFYNSTVRNEVSISTNERIFMGGAGLGGFIGLIVAGVFPGKMSVLDSYMAIIMLAVGLAAVFVFFRRPTGRFSIADAFHVFVRPFNSMEKIRTIEKKLLLLAVSLDEIFVWIAIGASFPFVISAGLGSGMSRPAVMFSVAAAIIIGAALVYVFESSNIPATPFFYPVKDLILVAGLLLLSFMYPASYVAGMIFLALLPVAFIGSVRFLKSQFPSSFDFRQITSFFRNPIMVIAPLMGSILWAVSGAMLFLTAMAFAIFALVIGIIVITNPKIFKVSDPYETANN”, for which the protein production result is on record as “failed”.

“MATITRTDRLILVPLTVELEDEAHQIYSDSRIWEHRPQARHTNVRVTRDIIKRTNESWGKKDLGPWGVYLRDRPSEFVGVGGVELIDGKVWDLKYRLRPDLWGNGYATEISNAATLATKRIDDSLPLTARVTTNHPASFRILEKLGLTPVWEGRRVGTEDDPNEPDVRIYSDRPLSDEILEMLKQRP”: the protein production entry was “failed”.

In the case of “MATKSSDSSHKQSPPSFRKSVEIKATHDQFFVWREFLWGGIAGAFGEGMMHPVDTLKTRLQSQIIMNATQRQKSILQMLRTVWVGDGLKGFYRGIAPGVTGSLATGATYFGFIESTKKWIEESHPSLAGHWAHFIAGAVGDTLGSFIYVPCEVIKQRMQIQGTSSSWSSYISRNSVPVQPRGDMYGYYTGMFQAGCSIWKEQGPKGLYAGYWSTLARDVPFAGLMVVFYEGLKDLTDQGKKKFPQYGVNSSIEGLVLGGLAGGLSAYLTTPLDVVKTRLQVQGSTIKYASYKGWLDAVGQIWRKEGPQGFFRGSVPRVMWYLPASALTFMAVEFLRDNFREKSNNNNNVVSNLSIERKTSSTSVHEG”, the protein production result is “failed”.

“MATLNKALTRPAAIAGIPIVPFVIVSGAIVLLSVYLSYYLVLLLIPAWLEMKAKARTDIHYFGLLWLAFKTRGRFATNKYFGANAMLANRYDAVDVSEFIEKMKLNERVTLDKHIPYSSHVHPQVIRNRHGDLVSTWELGGTVFECEDEHHLTLMATHLNNVIRSYEGLPITFYLHRIREKYQDAFAASSGIPFSDDVTALYYQPIKEKPLWRHRLFFTLCYAPFSRLEKKAMKAQPSGKRTAALDGALKVMLEHRAALASALSRYTATPLGVYEENGRVYSSQLSFYHRLLTGQWQKVAVTRSPFYDILSTPDVFFTTDTAECQTVSGSRFFRSLEIKDYSPDTATGLLDALLYAESEYVMTQSFTCMARDEAQNHIRLAEKRLNSAADDAISQREELIVLRDLLQSGHVSCGKYHFSLLVSSDSADQVVKDVNALAQPFADLGIMTTLSTLSLPAAYLAQLPGVYTLRPRLVAVSSQNFADMASLHNFHPHKRNGNPWGEAITIMTSPGGGGYYLNLHDSQAGRDDFNEKTPGNTAIIGKTGSGKTMLMTVMQQLMQKYRNPATFSESAPHKRLSTVYFDKDRAAEMAIRQMGGRYFRLRTGVPTGFNPFALAPTKRNISFIKRLVRMLCRRNSKPLDPRDEERISTAVDTIMLDYPPEYRRYGITRLLEVLPEPPTKEARTNGLRIRLKQWAQGGEFGWVFDNETDTFDISDIDNVGIDGTEFLDDDDIRGPITFYLLYRVTGLLDGRRLVMFMDEFWKWLADVEFSRFSLNMLKVIRKLNGIFIPATQSPDEIVRHPIAPAIIEQCGTQIFLANPKASRADYVEKMKVPDSVYDIVRHLDPGERYMVVLKTPLRAGETRPFVSMAKMDLSGLGKITRMLSGSEDNLKLFDALYQEGMQPDDWKDAFLEIAL”: the protein production entry is reported as “failed”.

Consider “MATPAYMSITGTKQGLITAGAFTEDSVGNTYQEGHEDQVMVQGFNHEVIIPRDPQSGQPTGQRVHKPVVITKVFDKASPLLLAALTSGERLTKVEIQWYRTSAAGTQEHYYTTVLEDAIIVDIKDYMHNCQDPGNAHFTHLEDVHFTYRKITWTHEVSGTSGSDDWRSPVAG”, for which the protein production result was “not failed”.

As to “MATPKLEIGVIGLGKFGLQVSRTLVELGHSVVGIDSTEGRIRQAQDILSQVYQGNAADPAVLQQLRFQDLDCVIVSVGNSMETSLLVTLNLQEIGVRKIWVKAVSTEHKKVLTRLGVDHVILPEHDVATHLAHRLVNPGMLDLLPLGGGGQILLQELTVDKWAGRTLLDLRLANEHGVMVVAVKPAAFREYRFVPAAHEVLQQGDKLVVIGRHEDVLRLEP”, the protein production result was “failed”.

Consider “MATPVVTKTAWKLQEIVAHASNVSSLVLGKASGRLLATGGDDCRVNLWSINKPNCIMSLTGHTSPVESVRLNTPEELIVAGSQSGSIRVWDLEAAKILRTLMGHKANICSLDFHPYGEFVASGSQDTNIKLWDIRRKGCVFRYRGHSQAVRCLRFSPDGKWLASAADDHTVKLWDLTAGKMMSEFPGHTGPVNVVEFHPNEYLLASGSSDRTIRFWDLEKFQVVSCIEGEPGPVRSVLFNPDGCCLYSGCQDSLRVYGWEPERCFDVVLVNWGKVADLAICNDQLIGVAFSQSNVSSYVVDLTRVTRTGTVTQDPVQASQPQTQQTPNPGVSLRRIYERPSTTCSKPQRVKHNSESERRSPSSEDDKDERESRAEIQNAEDYNEIFQPKNSISRTPPRRSEPFPAPPEDDIATAKEASKPSPAMDVQLPVPSQEVPARPSVMTSTPAPKGEPVIIPATRNEPIGLKASDFLPAVKVPQQAELVDEDAMSQIRKGHDTMCVVLTSRHKNLDTVRAVWTTGDIKTSVDSAVAINDLSVVVDLLNIVNQKASLWKLDLCTTVLPQIEKLLQSKYESYVQTGCTSLKLILQRFLPLITDILAAPPSVGVDISREERLHKCRLCFKQLKSISGLVKSRSGLSGRHGSAFRELHLLMASLD”, for which the protein production entry was “failed”.

In the case of “MATRGSRSEKVKRIFQQFDGNHDGGLNREEMAALVVAVNPRVKFSDEQINAILDEVFRTYAEFIDPNKGLTYDGLLRTYDDGAGDVDRDFDALGLELNADETTIKGSEAASSSSITDERAVEAQKKQRTAAWAVSPNHGIVFDETWKLVDDLEILVKRLKSKQEKDGKLKADNNNNNVDAFSDAGWSRELGPSSEISEKRIYWEESSHDYGVFVKELGVLRSKADGARSREEAFDGHMAIGRVLYEHQLFKEALVSFKRACELQPTDVRPHFKAGNCLYVLGKCKESKDEFLLALEAAESGGNQWAYLLPQIYVNLGIALEGEGMVLSACEYYREAAILCPTHFRALKLLGSALFGVGEYRAAVKALEEAIYLKPDYADAHCDLASSLHSMGEDERAIEVFQRAIDLKPGHVDALYNLGGLYMDLGRFQRASEMYTRVLTVWPNHWRAQLNKAVSLLGAGETEEAKRALKEALKLTNRVELHDAISHLKHLQKKKGKNNGNGNGGEGPFIVVEPSKFKTVGEKTTLRPDLATALQIRAFQRVTRLGKCDVEAVRKEMRDNDVPVSYSGSGGPTKSIRKPNLEEILRRLLSSLKPDTFQGAIKAINEKILALLDDSGSGRVDMGMFYAVIAPLCGGHSDKRKRVAFDALLWRPVNEGSSQITKTDAVKYIKLLRAIYIPSHGMSEMLEVHGEEEAESSVTVTFNQFLAMFDDPDWGFGIMSTILKLEANDRNRHGNQVCSVCRYPVIGSRFKEVKARFSLCNQCYGEGKVPPSFKQEEYKFREYESEAEAMKAKCVCFSMQSHKKAIAT”, the protein production entry is “failed”.

Take “MATRPKTIWESFLSPVVRFLMDEDKWRRYAQSIDWEKESDRFRRTDVIIPSYYTSQNFHGIEGGYLNSSAAVTYDPITEYVLPPNETLVRQALIDGVKVQPRRILDLGCGTGSTTLMLKQAFPQADVIGLDLSPYMLVRAEDKARTADLDISWRHGNAEKTSFPNASFDLVTTSLLFHETPVEVSQTILQECFRLLVAGGQVIILDGNQKSLRQLNWLNDIFEEPYIREYAADNLDARMGAAGFVGVQTEDLWLIHQVTSGIKPILATDTNQIKDRQYMPAIDNNNLEGLESPAFGIVALEHHHHHH”: the protein production entry is listed as “failed”.

With “MATVERAMMLKTMRKHGVTLALFAAGSTGLTAAINELTKSTIDQQAALQQKALFDQVLPADRYNNDLLKSCYLVSAPALGKGQHKVWIAKNNDRPIGAVMEATAPDGYSGAIQLLVAADFSGTVLGTRVTEHHETPGLGDKIELRLSDWITHFAGKVIHGQGDSHWAVKKDGGDFDQFTGATITPRAVVNAVKRAGLYAQTLPAQLPEFTACGE”, the protein production result is given as “failed”.

Regarding “MATYNYPEFGAGLWHFANYIDRYAVDGYGPALSTIDQINAAKEVGELSYVDLPYPFTPGVTLSEVKDALKDAGLKAIGITPEIYLQKWSRGAFTNPDPAARAAAFELMHESAGIVRELGANYVKVWPGQDGWDYPFQVSHKNLWKLAVDGMRDLAGANPDVKFAIEYKPREPRVKMTWDSAARTLLGIEDIGLDNVGVLLDFGHALYGGESPADSAQLIIDRGRLFGMDVNDNLRGWDDDLVVGTVHMTEIFEFFYVLKINNWQGVWQLDQFPFRENHVEAAQLSIRFLKHIYRALDKLDIPALQAAQEAQNPLQAQRIVQDALLSSITVSE”, the protein production entry is recorded as “not failed”.
